Source: article PMC7327521 (Journal of Molecular Biology, 2020)
Square brackets hold non-standard residues; d marks the D form. Ends that are not written are not given here. pY = N[C@@H](Cc1ccc(OP(=O)(O)O)cc1)C(=O)O; pT = C[C@@H](OP(=O)(O)O)[C@H](N)C(=O)O; pS = N[C@@H](COP(=O)(O)O)C(=O)O

Molecular target: T1, tandem SH2 domain of C. glabrata Spt6 (Spt6-tSH2) (C. glabrata, UniProt Q6FLB1 1250-1444)
T1 sequence (looked up): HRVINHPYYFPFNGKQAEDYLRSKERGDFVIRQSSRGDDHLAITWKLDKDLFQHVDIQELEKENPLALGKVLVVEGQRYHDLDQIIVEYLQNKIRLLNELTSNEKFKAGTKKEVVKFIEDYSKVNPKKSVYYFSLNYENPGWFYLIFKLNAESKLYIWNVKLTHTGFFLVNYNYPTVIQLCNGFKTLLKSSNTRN
Test: fluorescence polarisation

In the case of {5,6‑FAM}-PSYSP[pT]SPSYSP[pT]SPS [(pT4-CTD)2], the Kd is reported as 7.2 µM.

{5,6‑FAM}-PSYSPTSPS[pY]SPTSPS [PS(YSPTSPS)(pYSPTSPS)] was tested, and the Kd was 36.8 µM.

Work on {5,6‑FAM}-PS[pY]SPTSPSYSPTSPS [PS(pYSPTSPS)(YSPTSPS)] yielded a Kd of 45.4 µM.

For DDDEDGYNPYTL [Nrd1 Interaction Motif (NIM) peptide from Trf4], the Kd was 3.3 µM.

For {5,6‑FAM}-PS[pY]SPTSPS [(pY1-CTD)1], the Kd was 38.7 µM.

{5,6‑FAM}-PS[pY]SPT[pS]PS[pY]SPT[pS]PS [(pY1pS5-CTD)2] gave a Kd of 0.3 µM.

For {5,6‑FAM}-PS[pY][pS]PTSPS[pY][pS]PTSPS [(pY1pS2-CTD)2], the Kd was 0.3 µM.

{5,6‑FAM}-PSY[pS]P[pT]SPSYSPTSPS [PS(YpSPpTSPS)(YSPTSPS)] was tested, and the Kd was 5.7 µM.
